Results reported in patent US20250368754A1 (KANAPH THERAPEUTICS, published 2025).

Columns and labels:
[1] = target: T1, human FAP on HEK293-hFAP cells (human, UniProt Q12884 1-760); experiment: flow cytometry on HEK293-hFAP cells, 1 µg protein, anti-human IgG detection
T1 construct: whole, on cells; also called human FAP-expressing cell line
T1 sequence (looked up): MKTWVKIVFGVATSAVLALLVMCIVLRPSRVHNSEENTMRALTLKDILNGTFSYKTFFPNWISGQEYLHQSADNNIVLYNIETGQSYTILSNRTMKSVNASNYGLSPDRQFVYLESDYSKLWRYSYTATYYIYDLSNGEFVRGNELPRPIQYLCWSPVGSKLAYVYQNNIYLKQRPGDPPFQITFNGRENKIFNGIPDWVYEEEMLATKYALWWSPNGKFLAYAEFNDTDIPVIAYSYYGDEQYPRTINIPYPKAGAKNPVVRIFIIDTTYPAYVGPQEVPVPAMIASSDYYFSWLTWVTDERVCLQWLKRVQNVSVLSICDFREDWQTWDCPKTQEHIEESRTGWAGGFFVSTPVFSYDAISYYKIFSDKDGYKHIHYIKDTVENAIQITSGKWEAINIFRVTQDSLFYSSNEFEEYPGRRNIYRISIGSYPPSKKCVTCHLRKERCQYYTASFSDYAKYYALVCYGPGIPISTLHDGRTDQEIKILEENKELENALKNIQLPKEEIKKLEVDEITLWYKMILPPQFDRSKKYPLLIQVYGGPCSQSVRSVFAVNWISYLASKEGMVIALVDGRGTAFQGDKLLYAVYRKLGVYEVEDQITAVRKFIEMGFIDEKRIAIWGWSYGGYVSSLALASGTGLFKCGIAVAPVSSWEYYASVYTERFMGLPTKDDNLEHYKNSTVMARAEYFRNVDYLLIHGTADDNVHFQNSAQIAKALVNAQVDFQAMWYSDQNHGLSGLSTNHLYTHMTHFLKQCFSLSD
Method: (§1) Specifically, the cell line was prepared by suspending in a FACS buffer solution at 1×10⁵ cells/100 μL, and treated with 1 μg each of T3.10, T3.01, T3.05, T3.06, T3.14, and T3.18. The cells were washed twice with a FACS buffer solution. The cells were stained with an anti-human IgG antibody (Biolegend). The negative control sample was stained only with an anti-human IgG antibody (Biolegend). The expression ratio of the stained cells was measured using BD LSR and analyzed using FlowJo software.

[2] = target: T2, human LTβR on A375 cells (human, UniProt P36941 31-435); experiment: cell-based or functional assay
[3] = target: T1, human FAP on HEK293-hFAP cells; experiment: flow cytometry on HEK293-hFAP cells, 1 ug protein per 1x10^5 cells, anti-human IgG detection (axis TMEkine-PE)
Method: as §1

[4] = target: T3, recombinant human herpes virus entry mediator (HVEM) (human, UniProt Q92956 39-202); experiment: SPR, human HVEM immobilised on the chip (title: PRO121; 6ug/ml human HVEM pH5.5), T3.18 as analyte 0.78125-100 nM
T3 construct: neither construct is described; also called human HVEM; recombinant human HVEM protein (R&D systems)
T3 sequence (looked up): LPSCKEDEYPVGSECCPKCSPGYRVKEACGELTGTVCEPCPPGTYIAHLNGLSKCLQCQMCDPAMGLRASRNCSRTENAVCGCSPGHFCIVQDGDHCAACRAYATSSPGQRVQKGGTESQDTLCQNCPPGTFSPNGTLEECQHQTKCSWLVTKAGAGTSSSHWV
Method: (§2) Specifically, the surface of the CM5 chip was activated with a 1:1 mixture of […], and 5 to 6 μg/mL of human HVEM was immobilized for 60 seconds at a rate of 10 μL/min. The remaining active ester groups were blocked with 1 M ethanolamine. T3.01, T3.07, T3.09, T3.14, and T3.18 were each diluted to 100 nM in 1×HBS-EP+buffer solution and diluted by serial dilution. The diluted fusion proteins were reacted at a rate of 30 μL/min. The association and dissociation times were 180 seconds and 400 seconds, respectively. After the dissociation step, stabilization was performed for 60 seconds, and then the regeneration step was performed for 30 seconds with a 10 mM glycine pH 1.5 solution at a rate of 30 μL/min.

[5] = target: T4, human DcR3 (human, UniProt O95407 30-300); experiment: SPR, human DcR3 immobilised on CM5, fusion protein as analyte, 1:1 binding model
T4 construct: also called LIGHT receptor DcR3
T4 sequence (looked up): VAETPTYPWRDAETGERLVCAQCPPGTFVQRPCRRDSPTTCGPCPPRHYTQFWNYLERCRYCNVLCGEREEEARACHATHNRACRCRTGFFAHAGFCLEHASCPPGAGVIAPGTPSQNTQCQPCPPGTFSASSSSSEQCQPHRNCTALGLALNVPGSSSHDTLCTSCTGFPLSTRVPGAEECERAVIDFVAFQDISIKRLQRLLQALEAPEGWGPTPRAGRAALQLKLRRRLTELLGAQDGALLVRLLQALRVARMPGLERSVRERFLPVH
Method: as §2, with “DcR3” for “HVEM”, “50 nM or 200” for “100”

[6] = target: T5, recombinant human lymphotoxin beta receptor (LTβR) (human, UniProt P36941 28-227, limits assumed); experiment: SPR, human LTβR immobilised on CM5, fusion protein as analyte, 1:1 binding model
T5 construct: neither construct is described; also called human LTβR; recombinant human LTβR protein
Method: as §2, with “5” for “5 to 6”, “LTβR” for “HVEM”, “T3.01, T3.07, T3.09, T3.14, and T3.18 were each diluted to 100 nM in 1×HBS-EP+buffer solution and diluted by serial dilution.” left out

[7] = target: T2, human LTβR on A375 cells; experiment: flow cytometry on A375 cells, serial dilution from 500 nM, anti-human IgG detection
Method: Specifically, the A375 cell line was prepared by suspending in a FACS buffer solution at 1×10⁵ cells/100 μL, and treated with 100 μL each of T3.01, T3.07, T3.04, and T3.18 prepared by suspending at 500 nM and diluting by serial dilution. The cells were washed twice with a FACS buffer solution. The cells were stained with an anti-human IgG antibody (Biolegend). The expression ratio of the stained cells was measured using BD LSR and analyzed using FlowJo software.

[8] = target: T5, recombinant human lymphotoxin beta …; experiment: sandwich ELISA: plate coated with recombinant human LTbR 1 ug/mL, fusion protein from 1 nM in serial dilution, detected with biotinylated recombinant human FAP and streptavidin conjugate, OD 450 nm
Method: (i) The recombinant human LTβR protein was suspended at 1 μg/mL, dispensed in a 96-well immune plate, and treated for 24 hours. [0380] (ii) The wells were washed with a wash solution, and then blocking was performed for 1 hour with 1% BSA (bovine serum albumin, Sigma) solution. [0381] (iii) The wells were washed with a wash solution, and then T3.01, T3.14, T3.16, T3.17, T3.18 and T3.10, or T3.05, T3.06, T3.04, T3.14 and T3.10 were suspended at 1 nM and diluted by serial dilution. The wells were treated with the diluted T3.01, T3.14, T3.16, T3.17, T3.18 and T3.10, or T3.05, T3.06, T3.04, T3.14 and T3.10 for 2 hours. […] (iv) The wells were washed with a wash solution, and then treated with the human recombinant FAP-biotin diluted at 0.5 μg/mL for 2 hours. [0383] (v) The wells were washed with a wash solution, and then treated with streptavidin-RP for 20 minutes. [0384] (vi) The wells were washed with a wash solution, and then treated with a substrate solution for 20 minutes. [0385] (vii) The wells were treated with a stop solution, and the absorbance was measured at 450 nm.

[9] = target: T3, recombinant human herpes virus entry …; experiment: sandwich ELISA: plate coated with recombinant human HVEM 1 ug/mL, fusion protein from 1 nM in serial dilution, detected with biotinylated recombinant human FAP and streptavidin conjugate, OD 450 nm
Method: Considering that LIGHT of the fusion protein must bind to the herpes virus entry mediator (HVEM) for the action, it was confirmed that T3.01 binds to the recombinant human HVEM, as follows: [0370] (i) The recombinant human HVEM protein (R&D systems) was suspended at 1 μg/mL, dispensed in a 96-well immune plate, and treated for 24 hours. [0371] (ii) The wells were washed with a wash solution, and then blocking was performed for 1 hour with 1% BSA (bovine serum albumin, Sigma) solution. [0372] (iii) The wells were washed with a wash solution, and then T3.01, T3.14, T3.16, T3.17, T3.18 and T3.10, or T3.05, T3.06, T3.04, T3.14 and T3.10 were suspended at 1 nM and diluted by serial dilution. The wells were treated with the diluted T3.01, T3.14, T3.16, T3.17, T3.18 and T3.10, or T3.05, T3.06, T3.04, T3.14 and T3.10 for 2 hours. [0373] (iv) The wells were washed with a wash solution, and then treated with the human recombinant FAP-biotin diluted at 0.5 μg/mL for 2 hours. [0374] (v) The wells were washed with a wash solution, and then treated with streptavidin-RP for 20 minutes. [0375] (vi) The wells were washed with a wash solution, and then treated with a substrate solution for 20 minutes. [0376] (vii) The wells were treated with a stop solution, and the absorbance was measured at 450 nm.

[10] = target: T2, human LTβR on A375 cells; experiment: flow cytometry on A375 cells, anti-human IgG detection (axis TMEkine-PE); concentration not printed on the sheet

T2 sequence (P36941 31-435): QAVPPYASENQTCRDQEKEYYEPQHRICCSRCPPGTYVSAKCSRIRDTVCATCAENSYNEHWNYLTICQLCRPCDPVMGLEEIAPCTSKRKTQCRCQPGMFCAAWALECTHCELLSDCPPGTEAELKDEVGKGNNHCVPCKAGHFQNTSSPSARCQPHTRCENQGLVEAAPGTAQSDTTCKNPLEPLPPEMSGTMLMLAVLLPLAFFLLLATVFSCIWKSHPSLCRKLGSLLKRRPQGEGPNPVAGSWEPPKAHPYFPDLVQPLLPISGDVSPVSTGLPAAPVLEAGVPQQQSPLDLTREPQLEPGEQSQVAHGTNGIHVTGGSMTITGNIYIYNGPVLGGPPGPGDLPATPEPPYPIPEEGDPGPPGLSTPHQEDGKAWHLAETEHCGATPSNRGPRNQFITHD
T5 sequence (P36941 28-227 limits assumed): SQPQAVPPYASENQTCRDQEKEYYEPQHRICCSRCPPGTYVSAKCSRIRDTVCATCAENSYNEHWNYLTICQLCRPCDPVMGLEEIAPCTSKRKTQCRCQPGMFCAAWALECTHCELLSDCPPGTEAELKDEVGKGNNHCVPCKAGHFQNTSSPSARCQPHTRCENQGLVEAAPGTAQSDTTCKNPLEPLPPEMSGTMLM

B1: T3.18 (anti-hu FAP/hu scLIGHT(GGSG)-LTb2, hu IgG1 DANG) (bispecific antibody)
heavy: QVQLVQSGAEVKKPGASVKVSCKTSRYTFTEYTIHWVRQAPGQRLEWIGGINPNNGIPNYNQKFKGRVTITVDTSASTAYMELSSLRSEDTAVYYCARRRIAYGYDEGHAMDYWGQGTLVTVSSASTKGPSVFPLAPSSKSTSGGTAALGCLVKDYFPEPVTVSWNSGALTSGVHTFPAVLQSSGLYSLSSVVTVPSSSLGTQTYICNVNHKPSNTKVDKKVEPKSCDKTHTCPPCPAPELLGGPSVFLFPPKPKDTLMISRTPEVTCVVVAVSHEDPEVKFNWYVDGVEVHNAKTKPREEQYGSTYRVVSVLTVLHQDWLNGKEYKCKVSNKALPAPIEKTISKAKGQPREPQVYTLPPSRDELTKNQVSLWCLVKGFYPSDIAVEWESNGQPENNYKTTPPVLDSDGSFFLYSKLTVDKSRWQQGNVFSCSVMHEALHNHYTQKSLSLSPGK
light: not shown
chain: not shown
notes: Knob-into-hole; LIGHT-LTb2 heterotrimer with GGSG linker after LIGHT
percent of cells bound [1]: ≥ 99%
IL-8 secretion of A375 cells, EC50 (FIG. 15b) [2]: 0.0778 nM
percent of cells in the positive gate [3]: 99.8%
binding result [4]: no binding (tested: 100 nM)
Kd [5]: 7.93 nM
koff [5]: 0.0017 s⁻¹
kon [5]: 214000 M⁻¹ s⁻¹
Kd [6]: 0.245 nM
koff [6]: 0.000315 s⁻¹
kon [6]: 1.29e+06 M⁻¹ s⁻¹
percent of cells bound [7]: ≥ 96%

B2: T3.10 (anti-hu FAP/null, hu IgG1 DANG) (antibody)
heavy: QVQLVQSGAEVKKPGASVKVSCKTSRYTFTEYTIHWVRQAPGQRLEWIGGINPNNGIPNYNQKFKGRVTITVDTSASTAYMELSSLRSEDTAVYYCARRRIAYGYDEGHAMDYWGQGTLVTVSSASTKGPSVFPLAPSSKSTSGGTAALGCLVKDYFPEPVTVSWNSGALTSGVHTFPAVLQSSGLYSLSSVVTVPSSSLGTQTYICNVNHKPSNTKVDKKVEPKSCDKTHTCPPCPAPELLGGPSVFLFPPKPKDTLMISRTPEVTCVVVAVSHEDPEVKFNWYVDGVEVHNAKTKPREEQYGSTYRVVSVLTVLHQDWLNGKEYKCKVSNKALPAPIEKTISKAKGQPREPQVYTLPPSRDELTKNQVSLWCLVKGFYPSDIAVEWESNGQPENNYKTTPPVLDSDGSFFLYSKLTVDKSRWQQGNVFSCSVMHEALHNHYTQKSLSLSPGK
light: not shown
chain: not shown
notes: One-armed anti-FAP knob-into-hole antibody without LIGHT; used as the control for LIGHT activity
percent of cells bound [1]: ≥ 99%
binding result [8]: no binding (tested: 1000 pM)
percent of cells in the positive gate [3]: 99.3%
binding result [9]: no binding (tested: 1000 pM)
binding result [10]: no binding
